The target in the experiment is T1, Glu-plasminogen (Homo sapiens, UniProt P00747).
T1 chain: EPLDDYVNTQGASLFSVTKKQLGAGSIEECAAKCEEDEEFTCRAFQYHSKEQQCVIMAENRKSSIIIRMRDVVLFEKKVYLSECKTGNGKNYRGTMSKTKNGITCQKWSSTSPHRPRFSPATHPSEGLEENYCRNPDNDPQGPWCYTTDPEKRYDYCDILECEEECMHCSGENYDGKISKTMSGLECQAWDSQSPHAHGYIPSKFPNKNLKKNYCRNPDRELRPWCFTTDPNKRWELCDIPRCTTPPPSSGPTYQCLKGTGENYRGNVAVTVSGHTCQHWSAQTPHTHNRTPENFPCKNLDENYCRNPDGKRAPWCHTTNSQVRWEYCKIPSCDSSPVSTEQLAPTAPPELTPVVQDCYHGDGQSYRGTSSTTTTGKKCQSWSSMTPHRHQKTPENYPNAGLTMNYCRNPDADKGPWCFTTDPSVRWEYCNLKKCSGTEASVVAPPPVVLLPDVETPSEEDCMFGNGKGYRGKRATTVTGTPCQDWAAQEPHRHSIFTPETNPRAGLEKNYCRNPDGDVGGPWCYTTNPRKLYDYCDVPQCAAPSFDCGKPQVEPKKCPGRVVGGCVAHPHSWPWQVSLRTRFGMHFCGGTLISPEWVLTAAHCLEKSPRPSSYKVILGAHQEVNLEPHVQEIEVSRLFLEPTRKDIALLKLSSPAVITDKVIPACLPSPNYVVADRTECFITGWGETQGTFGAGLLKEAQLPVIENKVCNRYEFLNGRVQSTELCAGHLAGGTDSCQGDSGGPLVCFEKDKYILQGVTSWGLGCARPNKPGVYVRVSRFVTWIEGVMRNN
Kind of experiment: SPR.

For two molecules, Kd results are on record in paper PMC2814163 (2010).

B1: CI-MPR Dom1-3 (protein)
chain: AAGTQGAEFPELCSYTWEAVDTKNNMLYKINICGNMGVAQCGPSSAVCMHDLKTDSFHSVGDSLLKTASRSLLEFNTTVNCKQQNHKIQSSITFLCGKTLGTPEFVTATDCVHYFEWRTTAACKKNIFKANKEVPCYAFDRELKKHDLNPLIKTSGAYLVDDSDPDTSLFINVCRDIEVLRASSPQVRVCPTGAAACLVRGDRAFDVGRPQEGLKLVSNDRLVLSYVKEGAGQPDFCDGHSPAVTITFVCPSERREGTIPKLTAKSNCRFEIEWVTEYACHRDYLESRSCSLSSAQHDVAVDLQPLSRVEASDSLFYTSEADEYTYYLSICGGSQAPICNKKDAAVCQVKKADSTQVKVAGRPQNLTLRYSDGDLTLIYFGGEECSSGFQRMSVINFECNQTAGNNGRGAPVFTGEVDCTYFFTWDTKYACVH
What is called Kd is a measure of binding affinity in units of concentration. Consider B1, for which the Kd came to 3 nM.

B2: CI-MPR Dom1-2 (protein)
chain: AAGTQGAEFPELCSYTWEAVDTKNNMLYKINICGNMGVAQCGPSSAVCMHDLKTDSFHSVGDSLLKTASRSLLEFNTTVNCKQQNHKIQSSITFLCGKTLGTPEFVTATDCVHYFEWRTTAACKKNIFKANKEVPCYAFDRELKKHDLNPLIKTSGAYLVDDSDPDTSLFINVCRDIEVLRASSPQVRVCPTGAAACLVRGDRAFDVGRPQEGLKLVSNDRLVLSYVKEGAGQPDFCDGHSPAVTITFVCPSERREGTIPKLTAKSNCRFEIEWVTEYACHR
B2: the Kd turned out to be 5 nM.
